The text below walks through data of patent publication US20250302942A1 (LG CHEM, published 2025).

The test addresses T1, ACE2-Fc (LG chem) (human, UniProt Q9BYF1 18-740).
T1 construct: extracellular domain; also called ACE2-ED; extracellular domain of human Angiotensin Converting Enzyme 2 protein; not shown: Fc part of ACE2-Fc
The test is described as follows: BLI (Octet QKe), ACE2-Fc captured on Protein A sensor, analyte at 100 ug/mL. In general terms: In BLI a coated tip is dipped into the sample, and binding shifts an interference pattern.

T1 sequence (Q9BYF1 18-740): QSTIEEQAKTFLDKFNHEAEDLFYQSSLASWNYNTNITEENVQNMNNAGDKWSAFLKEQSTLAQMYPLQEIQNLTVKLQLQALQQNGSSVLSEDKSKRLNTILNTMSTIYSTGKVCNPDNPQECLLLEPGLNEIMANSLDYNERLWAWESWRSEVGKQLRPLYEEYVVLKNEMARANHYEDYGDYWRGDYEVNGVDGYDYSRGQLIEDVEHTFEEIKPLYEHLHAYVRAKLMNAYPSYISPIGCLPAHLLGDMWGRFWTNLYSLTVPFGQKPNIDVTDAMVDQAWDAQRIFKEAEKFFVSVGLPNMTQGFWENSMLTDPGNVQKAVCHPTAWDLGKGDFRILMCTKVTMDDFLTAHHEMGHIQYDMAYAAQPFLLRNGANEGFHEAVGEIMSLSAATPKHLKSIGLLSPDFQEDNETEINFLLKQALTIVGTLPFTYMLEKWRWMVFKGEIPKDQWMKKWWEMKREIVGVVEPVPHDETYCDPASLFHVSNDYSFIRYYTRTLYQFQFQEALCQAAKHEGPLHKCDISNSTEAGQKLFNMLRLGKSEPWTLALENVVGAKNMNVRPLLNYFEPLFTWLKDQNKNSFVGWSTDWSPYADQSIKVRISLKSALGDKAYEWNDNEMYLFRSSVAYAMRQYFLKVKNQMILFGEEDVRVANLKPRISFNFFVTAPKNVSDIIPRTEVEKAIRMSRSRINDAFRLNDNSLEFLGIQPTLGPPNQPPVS

B1: Hepatitis B surface antigen (HBsAg) VLP (other)
chain: MESTTSGFLGPLLVLQAGFFLLTRILTIPQSLDSWWTSLNFLGGAPTCPGQNSQSPTSNHSPTSCPPICPGYRWMCLRRFIIFLFILLLCLIFLLVLLDYQGMLPVCPLLPGTSTTSTGPCKTCTIPAQGTSMFPSCCCTKPSDGNCTCIPIPSSWAFARFLWEWASVRFSWLSLLVPFVQWFAGLSPTVWLSVIWMMWYWGPSLYNILSPFLPLLPIFFCLWVYI
notes: also called HBsAg1
In the case of B1, the “ACE2 Binding activity” value turned out to be 0.24.
